For this assay, the target named is CEA (Carcinoembryonic Antigen) (UniProt P06731). The experiment in a line: competition ELISA on CEA-coated plates; competitor of murine MAK BW 431/26 (5 ng/ml). For orientation: An ELISA detects its analyte on a solid surface through an enzyme-linked reagent.
Chain of UniProt P06731 (P06731 35-685 limits assumed): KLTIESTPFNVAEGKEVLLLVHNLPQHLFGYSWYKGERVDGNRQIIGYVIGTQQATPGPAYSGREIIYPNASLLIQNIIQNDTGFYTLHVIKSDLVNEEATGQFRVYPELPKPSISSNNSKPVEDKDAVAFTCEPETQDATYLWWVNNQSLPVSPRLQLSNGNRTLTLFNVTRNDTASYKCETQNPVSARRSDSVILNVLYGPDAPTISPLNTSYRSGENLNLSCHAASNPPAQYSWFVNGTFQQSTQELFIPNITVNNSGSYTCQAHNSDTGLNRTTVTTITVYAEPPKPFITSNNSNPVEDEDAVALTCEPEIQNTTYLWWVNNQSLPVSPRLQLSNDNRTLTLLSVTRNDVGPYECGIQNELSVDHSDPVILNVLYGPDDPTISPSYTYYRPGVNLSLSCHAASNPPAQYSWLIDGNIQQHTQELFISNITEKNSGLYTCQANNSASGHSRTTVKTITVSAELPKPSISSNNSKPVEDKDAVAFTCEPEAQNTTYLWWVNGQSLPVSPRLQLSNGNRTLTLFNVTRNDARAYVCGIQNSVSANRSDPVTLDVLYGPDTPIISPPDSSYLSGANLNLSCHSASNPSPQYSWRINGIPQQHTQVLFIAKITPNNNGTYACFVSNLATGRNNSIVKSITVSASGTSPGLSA

Substance humanized MAK BW 431/26 (antibody) registered a molar excess of competitor for 50 % inhibition of 200 molar excess.

Source of the values: patent EP0501215B1.
